B1: Transcription factor SOX-4, residues 60 to 127; numbered along this chain, Q06945 (parent)
chain: KRPMNAFMVWSQIERRKIMEQSPDMHNAEISKRLGKRWKLLKDSDKIPFIREAERLRLKHMADYPDYK

± gives the uncertainty stated by the source.

The variants in the data set derive from B1. As to the kind of experiment: abundance fitness (aPCA) (normalised: wild type 0, dead -1); higher = more abundant; growth selection in yeast, the domain comes from the species named. Conditions: Homo sapiens.
Regarding K17F, the abundance fitness is -0.353 ± 0.15. The figure for K17E is -1.1 ± 0.42; for K17W it is -0.87 ± 0.13. The figure for V9F is -0.482 ± 0.15; for V9C it is -0.258 ± 0.16. The figure for V9H is -0.733 ± 0.18; for V9A it is -0.473 ± 0.085. Turning to K68Y, the abundance fitness was -0.125 ± 0.2. The result for K68M reads -0.23 ± 0.31. Take K68V: the abundance fitness is -0.43 ± 0.34. S11E: the abundance fitness was -0.031 ± 0.11. For S11F, the abundance fitness was -0.217 ± 0.044. The figure for S11R is -0.63 ± 0.058; for S11M it is -0.394 ± 0.079; for S11I it is -0.737 ± 0.079. The result for S11P reads -0.99 ± 0.19; that for S11W, -0.608 ± 0.089; that for L41Y, -0.807 ± 0.17. The result for L41K reads -0.653 ± 0.11; that for L41V, -0.529 ± 0.067.

D43A: the abundance fitness was -0.061 ± 0.055. The figure for D43W is -0.106 ± 0.043; for D43G it is -0.27 ± 0.046.

Take D43L: the abundance fitness was -0.151 ± 0.044. The figure for D43M is -0.062 ± 0.056; for D43Q it is -0.337 ± 0.069; for D43P it is -0.137 ± 0.067. As for D43N, the abundance fitness is -0.294 ± 0.053. The result for E52L reads -0.3 ± 0.062; that for E52R, -0.322 ± 0.1; that for E52Y, -0.634 ± 0.23. Turning to E52D, the abundance fitness is -0.223 ± 0.13. The result for E52V reads -0.556 ± 0.065. The result for E52T reads -0.477 ± 0.11; that for E52N, -0.893 ± 0.19; that for E52F, -0.215 ± 0.11.

For the variant K39S, the abundance fitness is -0.027 ± 0.036. The figure for K39M is -0.144 ± 0.036. The result for K39N reads -0.19 ± 0.045. The figure for Y67S is 0.088 ± 0.078; for Y67C it is -0.04 ± 0.15; for Y67V it is 0.159 ± 0.085.

With Y67F, the abundance fitness was 0.259 ± 0.25.

Y67E: the abundance fitness worked out at 0.179 ± 0.083. Take Y67R: the abundance fitness was 0.048 ± 0.11. The figure for D24Q is -0.114 ± 0.063; for D24M it is -0.214 ± 0.057. The result for D24A reads -0.239 ± 0.06. The result for D24S reads -0.15 ± 0.04; that for W38G, -0.744 ± 0.05; that for W38V, -0.887 ± 0.12. With W38H, the abundance fitness was -0.548 ± 0.14. The figure for W38C is -0.849 ± 0.076; for W38T it is -0.632 ± 0.11.

Take W38P: the abundance fitness is -0.739 ± 0.13. The figure for W38K is -0.708 ± 0.09; for E29W it is -0.84 ± 0.18; for E29A it is -0.199 ± 0.071. In the case of E29I, the abundance fitness is -0.916 ± 0.19. As to E29C, the abundance fitness is -0.394 ± 0.2. Turning to R57G, the abundance fitness was -0.247 ± 0.064.

As for R57M, the abundance fitness is -0.135 ± 0.086. The result for R57L reads -0.328 ± 0.063; that for R57K, -0.375 ± 0.16.

Consider S44D, for which the abundance fitness is -0.217 ± 0.14. The figure for S44E is 0.119 ± 0.1; for S44N it is -0.23 ± 0.18.

As to S44V, the abundance fitness is -0.164 ± 0.066. For S44F, the abundance fitness was -0.442 ± 0.13. The figure for L56V is -0.286 ± 0.063; for L56D it is -0.385 ± 0.13; for L56W it is -0.542 ± 0.088.

As to L56E, the abundance fitness was -0.201 ± 0.1. The figure for L56P is -0.655 ± 0.1; for P65R it is -0.174 ± 0.056.

Turning to P65V, the abundance fitness is -0.097 ± 0.068. The result for P65K reads 0.018 ± 0.07. The figure for P65I is -0.333 ± 0.15; for P65W it is -0.466 ± 0.11.

For the variant P65E, the abundance fitness was -0.025 ± 0.076.

For M8P, the abundance fitness was -1.01 ± 0.29. The figure for M8W is -0.204 ± 0.055; for M8T it is -0.068 ± 0.058. The result for I18K reads -0.892 ± 0.17; that for I18E, -0.63 ± 0.12. The figure for I18H is -0.627 ± 0.2. Turning to I18A, the abundance fitness is -0.484 ± 0.21. The figure for I18Y is -0.285 ± 0.21; for P48T it is -0.346 ± 0.071. The figure for P48R is -0.4 ± 0.055.

Turning to P48F, the abundance fitness is -0.351 ± 0.076.

Take P48V: the abundance fitness is -0.315 ± 0.044.

For the variant P48K, the abundance fitness is -0.482 ± 0.1. With P48C, the abundance fitness is -0.504 ± 0.084. In the case of I50L, the abundance fitness was -0.194 ± 0.082. On to I50T, for which the abundance fitness is -0.337 ± 0.086. The result for I50G reads -0.309 ± 0.07; that for S22R, -0.211 ± 0.038; that for S22G, -0.4 ± 0.041.

In the case of S22T, the abundance fitness is -0.326 ± 0.094.

In the case of L34F, the abundance fitness is -0.724 ± 0.18. The figure for L34Q is -0.577 ± 0.22. The figure for L34G is -0.973 ± 0.14; for M19E it is -0.019 ± 0.067. The result for M19W reads -0.326 ± 0.068; that for M19P, -0.785 ± 0.26.

For the variant M19H, the abundance fitness is -0.368 ± 0.072. The result for M19I reads 0.014 ± 0.045; that for M19S, -0.212 ± 0.039. The result for M19V reads -0.091 ± 0.046; that for M19N, -0.396 ± 0.057. The result for M19D reads -0.463 ± 0.088.

As for M19L, the abundance fitness was 0.116 ± 0.041. The figure for N5T is 0.095 ± 0.047; for N5I it is -0.665 ± 0.23. Take N5K: the abundance fitness is -0.553 ± 0.11. As to N5S, the abundance fitness worked out at 0.016 ± 0.065. The figure for N5M is -0.842 ± 0.13; for N5P it is -0.546 ± 0.11; for N5Y it is -0.472 ± 0.18. The result for N5Q reads -0.585 ± 0.12; that for M61N, -0.104 ± 0.13. The result for M61P reads -0.202 ± 0.087. For M61H, the abundance fitness worked out at 0.098 ± 0.061. In the case of E54F, the abundance fitness is -0.574 ± 0.056.

For E54L, the abundance fitness was -0.501 ± 0.045. The figure for E54V is -0.696 ± 0.055; for E54I it is -0.701 ± 0.067; for E54C it is -0.425 ± 0.049. The result for H60E reads 0.053 ± 0.072. On to H60F, for which the abundance fitness was -0.193 ± 0.21. The figure for H60G is 0.04 ± 0.05; for H60C it is -0.205 ± 0.13; for Y64L it is 0.009 ± 0.046.

Regarding Y64T, the abundance fitness stood at 0.059 ± 0.065. With Y64F, the abundance fitness is -0.156 ± 0.094. The figure for Y64E is 0.006 ± 0.083; for Y64S it is 0.063 ± 0.056; for Y64C it is -0.056 ± 0.2. The result for Y64G reads -0.008 ± 0.073. The figure for R16F is -0.368 ± 0.055; for R16Y it is -0.416 ± 0.06. In the case of R16P, the abundance fitness was -0.234 ± 0.066. As to R16V, the abundance fitness is -0.111 ± 0.038. The figure for R16I is -0.216 ± 0.053. The result for R16C reads -0.206 ± 0.057; that for H26A, 0.113 ± 0.07; that for H26Q, 0.111 ± 0.1.

Take H26V: the abundance fitness was -0.039 ± 0.11. Consider H26N, for which the abundance fitness came out at 0.289 ± 0.25. The result for H26L reads -0.1 ± 0.051; that for H26W, -0.281 ± 0.079.

R37L: the abundance fitness was -0.364 ± 0.097. The figure for R37D is -0.035 ± 0.091; for R37E it is 0.043 ± 0.07; for R37T it is -0.05 ± 0.089.

On to R37N, for which the abundance fitness is 0.101 ± 0.29. The result for R37K reads 0.052 ± 0.078. As to D66P, the abundance fitness is -0.067 ± 0.079. On to D66K, for which the abundance fitness is -0.11 ± 0.082.

As to D66W, the abundance fitness was -0.325 ± 0.13. On to D66Y, for which the abundance fitness was -0.537 ± 0.26. The result for D66V reads -0.157 ± 0.049; that for D66G, -0.08 ± 0.07; that for P23R, -0.669 ± 0.048. The figure for P23W is -0.766 ± 0.088. P23Y: the abundance fitness was -0.862 ± 0.091.

For the origin of these results see the Human Domainome abundance scans (Beltran et al. 2025).
